{"source": "paper PMC2757994", "about": "(The Journal of Biological Chemistry, 2009)", "target": "the molecule itself", "experiment": "SEC-MALS", "data": [{"protein": "fibulin 5 fragment, residues 120–333 (cbEGFs 2–6) (domain or fragment, UniProt Q9UBX5 120-333, looked up, N-glycosylated by the EBNA 293 cells (potential N-linked sites at residues 283 and 296)) DESNQCVDVDECATDSHQCNPTQICINTEGGYTCSCTDGYWLLEGQCLDIDECRYGYCQQLCANVPGSYSCTCNPGFTLNEDGRSCQDVNECATENPCVQTCVNTYGSFICRCDPGYELEEDGVHCSDMDECSFSEFLCQHECVNQPGTYFCSCPPGYILLDDNRSCQDINECEHRNHTCNLQQTCYNLQGGFKCIDPIRCEEPYLRISDNRCM", "values": [{"measurement": "stoichiometry N", "value": 2}]}]}
